Target: human CD147 on human cell lines (KYSE-70, H292, LS174T and other human-derived cell lines) (human) (UniProt P35613)
Experiment: FACS on the human KYSE-70 esophageal epithelial cell line, Alexa Fluor 647 anti-human IgG

B1: humanized anti-human CD147 hu3A11 antibody (3A11 Lc1 / Hc1) (antibody, V domains shown)
VH: EVQLVESGGGLVQPGGSLRLSCAASGFTFSNYWMDWVRQAPGKGLEWVGEIRLKSYNYATHYAASVKGRFTISRDDSKNSVYLQMNSLKTEDTAVYYCTAAGTDYWGQGTLVTVSS
VL: DIQMTQSPSSLSASVGDRVTITCRASQSVRTDVGWYQQKPGKAPKLLIYYSSNRYTGVPSRFSGSGSGTDFTLTISSLQPEDFATYYCQQDYSSPYTFGQGTKLEIK
For B1, the Kd was 1.65 nM.

— patent publication WO2019173771A1
